Source: US20140274782A1, “AFFINITY REAGENTS AND METHODS FOR DETECTION, PURIFICATION, AND PROTEOMIC ANALYSIS OF METHYLATED PROTEINS” (The Board of Trustees of the Leland Stanford Junior …, priority 2013, published 2014)

B1: hnRNP D: protein with methylated lysine identified in 3xMBT pull-down (protein, UniProt Q14103 2-355, looked up)
Heterogeneous nuclear …: SEEQFGGDGAAAAATAAVGGSAGEQEGAMVAATQGAAAAAGSGAGTGGGTASGGTEGGSAESEGAKIDASKNEEDEGHSNSSPRHSEAATAQREEWKMFIGGLSWDTTKKDLKDYFSKFGEVVDCTLKLDPITGRSRGFGFVLFKESESVDKVMDQKEHKLNGKVIDPKRAKAMKTKEPVKKIFVGGLSPDTPEEKIREYFGGFGEVESIELPMDNKTNKRRGFCFITFKEEEPVKKIMEKKYHNVGLSKCEIKVAMSKEQYQQQQQWGSRGGFAGRARGRGGGPSQNWNQGYSNYWNQGYGNYGYNSQGYGGYGGYDYTGYNNYYGYGDYSNQQSGYGKVSRRGGHQNSYKPY
B2: TUBB4: protein with methylated lysine identified in 3xMBT pull-down (protein, UniProt P04350 1-444, looked up)
Tubulin beta-4A chain: MREIVHLQAGQCGNQIGAKFWEVISDEHGIDPTGTYHGDSDLQLERINVYYNEATGGNYVPRAVLVDLEPGTMDSVRSGPFGQIFRPDNFVFGQSGAGNNWAKGHYTEGAELVDAVLDVVRKEAESCDCLQGFQLTHSLGGGTGSGMGTLLISKIREEFPDRIMNTFSVVPSPKVSDTVVEPYNATLSVHQLVENTDETYCIDNEALYDICFRTLKLTTPTYGDLNHLVSATMSGVTTCLRFPGQLNADLRKLAVNMVPFPRLHFFMPGFAPLTSRGSQQYRALTVPELTQQMFDAKNMMAACDPRHGRYLTVAAVFRGRMSMKEVDEQMLSVQSKNSSYFVEWIPNNVKTAVCDIPPRGLKMAATFIGNSTAIQELFKRISEQFTAMFRRKAFLHWYTGEGMDEMEFTEAESNMNDLVSEYQQYQDATAEEGEFEEEAEEEVA
B3: SIRT1: NAD-dependent lysine deactylase SIRT1 (protein, UniProt Q96EB6 2-747, looked up)
NAD-dependent protein …: ADEAALALQPGGSPSAAGADREAASSPAGEPLRKRPRRDGPGLERSPGEPGGAAPEREVPAAARGCPGAAAAALWREAEAEAAAAGGEQEAQATAAAGEGDNGPGLQGPSREPPLADNLYDEDDDDEGEEEEEAAAAAIGYRDNLLFGDEIITNGFHSCESDEEDRASHASSSDWTPRPRIGPYTFVQQHLMIGTDPRTILKDLLPETIPPPELDDMTLWQIVINILSEPPKRKKRKDINTIEDAVKLLQECKKIIVLTGAGVSVSCGIPDFRSRDGIYARLAVDFPDLPDPQAMFDIEYFRKDPRPFFKFAKEIYPGQFQPSLCHKFIALSDKEGKLLRNYTQNIDTLEQVAGIQRIIQCHGSFATASCLICKYKVDCEAVRGDIFNQVVPRCPRCPADEPLAIMKPEIVFFGENLPEQFHRAMKYDKDEVDLLIVIGSSLKVRPVALIPSSIPHEVPQILINREPLPHLHFDVELLGDCDVIINELCHRLGGEYAKLCCNPVKLSEITEKPPRTQKELAYLSELPPTPLHVSEDSSSPERTSPPDSSVIVTLLDQAAKSNDDLDVSESKGCMEEKPQEVQTSRNVESIAEQMENPDLKNVGSSTGEKNERTSVAGTVRKCWPNRVAKEQISRRLDGNQYLFLPPNRYIFHGAEVYSDSEDDVLSSSSCGSNSDSGTCQSPSLEEPMEDESEIEEFYNGLEDEPDVPERAGGAGFGTDGDDQEAINEAISVKQEVTDMNYPSNKS
modifications: GST or 3xFlag tag

Assays:
[1] = tested on: 3×MBT domain of L3MBTL1; test: SILAC proteomic pull-down 3×MBT vs 3×MBTD355N from 293T nuclear extract, LC-MS/MS; format: binding, human; details: SILAC ratio, 293T nuclear extract pull-down; * = protein identified in only one labeling experiment
Protocol: Protein pull-downs were performed as described above using 600 μg of nuclear extract prepared with isotopic labels as indicated. After eluting with glutathione, 3×MBT domain was removed by dialysis into high salt and rebinding to GSH-sepharose. Bound proteins were separated by SDS-PAGE and analyzed by in-gel tryptic digest followed by LC-MS/MS. Peptides were identified using MaxQuant version 1.2.2.5 (Cox and Mann (2008) Nat. Biotechnol. 26, 1367-1372) and candidate methylated peptides were verified by manual inspection.
For stable isotope labeling by amino acids in cell culture (SILAC) experiments HEK 293T cells were grown for at least six doublings in DMEM for SILAC supplemented with 10% dialyzed fetal bovine serum (FBS), 230 mg/L L-proline and either 100 mg/L each of L-lysine and L-arginine (“light” medium), D4-L-lysine and ^13C6-L-arginine (“medium” media), or ^13C6^15N2-L-lysine and ^13C6^15N4-L-arginine (Thermo Scientific). Heavy methyl labeling used DMEM without L-Methionine or L-Cysteine supplemented with D3^13C-L-Methionine (Sigma), L-Cysteine (Sigma) and 10% dialyzed FBS.
600 μg of nuclear extract was incubated overnight rotating at 4° C. with 20 μl packed 3×MBT or 3×MBTD355N beads in a total volume of 250 μL with binding buffer. Supernatant was removed and saved for use as a loading control. Beads were washed 4×5 minutes with 0.5 mL binding buffer. Protein was eluted by incubating in 20 μL elution buffer (10 mg/mL glutathione in 50 mM Tris pH 8.0) rotating at 4° C. for four hours. Elutions from 3×MBT and 3×MBTD355N were combined and dialyzed overnight at 4° C. against 10,000× volume of dissociation buffer (50 mM Tris pH 7.5, 750 mM NaCl) in a 0.1 mL Slide-A-Lyzer MINI Dialysis Device with 3.5K molecular weight cutoff (Thermo Scientific). 80 μL of GSH-Sepharose was prepared by washing briefly three times with 0.5 mL binding buffer. Dialyzed proteins were added to the GSH-Sepharose and incubated 4 hours rotating at 4° C. to deplete the GST-fusion domains. Supernatant was transferred to a fresh 1.5 mL tube. Proteins were separated by SDS-PAGE on a 10% polyacrylamide gel and stained using SilverQuest Silver Staining Kit (Life Technologies). Lanes were excised, residual 3×MBT band was removed, and gel was diced into 0.5 mm cubes. Gel pieces were destained and processed by in-gel digestion (Carlson et al. (2011) Science Signaling 4) with sequencing grade trypsin (Promega) and the peptide sample was dried completely in a vacuum centrifuge. To prepare a loading control, 2 μL each of light and heavy nuclear extract were combined, 6 μL of 8M urea was added, proteins were denatured by adding 2 μL of 100 mM dithiothreitol in digest buffer (50 mM ammonium bicarbonate) and heating to 60° C. for 1 hour, cysteine was alkylated by adding 2.2 μL 100 mg/mL iodoacetamide in digest buffer and incubating 1 hour at room temperature in darkness, and proteins were digested by adding 80 μL trypsin (Promega) at 12.5 ng/μL in digest buffer and incubating overnight at room temperature in darkness. Digestion was stopped by adding 10 μL of 10% formic acid.
Each experiment consisted of two sets of pull-downs: “forward” labeling with 3×MBT incubated with light nuclear extract and 3×MBTD355N with medium extract, and a second “reverse” labeling experiment with the label conditions swapped. Proteins were included in the results if they were quantified in both labeling directions. To determine reproducibility the entire experiment including the label swap was duplicated using independent protein preparations and a mass spectrometer at another institution.
For 3×MBT pull-down experiment #1 the gel lane was processed and peptides were loaded off-line onto a first dimension trap column (Waters Xbridge, C18, 10 μm particle size, 100 Å pore size, 5 cm packing length, 150 μm column i.d.). […]

[2] = target: T1, G9a (Homo sapiens, UniProt Q96KQ7); test: In vitro methylation reaction with 3H-SAM, autoradiograph; format: biochemical; details: recombinant SIRT1, recombinant G9a SET domain
T1 construct: in vitro methylation assays on SIRT1 and SIRT1K622R using recombinant G9a SET domain
T1 sequence (Q96KQ7 1038-1155 limits assumed, species assumed): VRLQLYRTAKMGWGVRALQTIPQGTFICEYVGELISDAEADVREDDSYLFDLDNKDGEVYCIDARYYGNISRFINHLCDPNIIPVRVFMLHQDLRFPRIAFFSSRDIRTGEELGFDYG
Protocol: Recombinant GST-SIRT1 was expressed by baculoviral transduction of the Sf9 insect cell line as previously described (Levy et al. (2011) Nat. Immunol. 12, 29-36). A panel of enzymes was tested for ability to methylate recombinant SIRT1 using ^3H-SAM in in vitro methylation reactions (Kuo et al. (2011) Mol. Cell 44, 609-620). SIRT1K622R was generated by site-directed mutagenesis (Stratagene). For the pull-down experiment, 293T cells were transfected with a 10:1 enzyme:substrate DNA ratio. 150 μg of nuclear proteins were used for pull-downs with 3×MBT or 3×MBTD355N coupled GSH-Sepharose as described above.

| Molecule | Protein Ratio 3xMBT/D355N [1] | in vitro methylation by G9a [2] |
| --- | --- | --- |
| B1 | 22.5 | – |
| B2 | 1.9 | – |
| B3 | – | methylates the NAD-dependent lysine deactylase SIRT1 at lysine 622 |
